Blank lines part the entries; values can stand above or below the sequence they belong to.
Assays:
HLA-B*45:06 = test: IEDB peptide-MHC binding, purified MHC/competitive/fluorescence; filed as Kd, often an IC50 or EC50 that approximates it; ≥ and ≤ were set here for values at or beyond the usual limits of such assays; conditions: source organism: Homo sapiens
HLA-A*68:23 = test: as above; conditions: source organism: Homo sapiens
HLA-B*83:01 = test: as above; conditions: source organism: Homo sapiens
HLA-B*15:42 = test: as above; conditions: source organism: Homo sapiens
HLA-B*46:01 = test: as above; conditions: source organism: Listeria monocytogenes serotype 1/2a str. F6854
HLA-C*06:02 = test: IEDB peptide-MHC binding, purified MHC/direct/fluorescence; filed as Kd, often an IC50 or EC50 that approximates it; ≥ and ≤ were set here for values at or beyond the usual limits of such assays; conditions: source organism: Listeria monocytogenes serotype 1/2a str. F6854
HLA-C*15:02 = test: as above; conditions: source organism: Listeria monocytogenes serotype 1/2a str. F6854
HLA-C*07:02 = test: as above; conditions: source organism: Listeria monocytogenes serotype 1/2a str. F6854
HLA-A*02:03 = test: IEDB peptide-MHC binding, purified MHC/competitive/fluorescence; filed as Kd, often an IC50 or EC50 that approximates it; ≥ and ≤ were set here for values at or beyond the usual limits of such assays; conditions: source organism: Vaccinia virus Copenhagen
HLA-B*15:17 = test: as above
HLA-B*15:01 [1] = test: as above; conditions: source organism: Vaccinia virus Copenhagen
HLA-A*31:01 [2] = test: as above; conditions: source organism: Vaccinia virus Copenhagen
HLA-B*18:01 = test: as above
HLA-A*26:02 = test: as above; conditions: source organism: Vaccinia virus Copenhagen
HLA-B*08:01 = test: IEDB peptide-MHC binding, purified MHC/direct/fluorescence; filed as Kd, often an IC50 or EC50 that approximates it; ≥ and ≤ were set here for values at or beyond the usual limits of such assays
HLA-B*57:01 = test: as above
HLA-A*24:03 = test: as above; conditions: source organism: Camelpox virus M-96
HLA-C*14:02 = test: as above; conditions: source organism: Vaccinia virus Copenhagen
HLA-B*15:09 = test: as above; conditions: source organism: Variola virus
HLA-A*11:01 [3] = test: as above; conditions: source organism: Camelpox virus M-96
HLA-B*58:01 = test: as above
HLA-A*01:01 = test: as above
HLA-B*08:03 = test: as above; conditions: source organism: Variola virus
HLA-A*69:01 = test: as above
HLA-B*07:02 = test: as above
HLA-B*39:01 = test: as above; conditions: source organism: Variola virus
HLA-A*68:02 = test: as above
HLA-A*02:01 = test: as above
HLA-A*11:01 [4] = test: IEDB peptide-MHC binding, purified MHC/competitive/fluorescence; filed as Kd, often an IC50 or EC50 that approximates it; ≥ and ≤ were set here for values at or beyond the usual limits of such assays; conditions: source organism: Influenza A virus H3N2
HLA-A*30:01 = test: as above; conditions: source organism: Influenza A virus H3N2
HLA-B*48:01 = test: IEDB peptide-MHC binding, purified MHC/direct/fluorescence; filed as Kd, often an IC50 or EC50 that approximates it; ≥ and ≤ were set here for values at or beyond the usual limits of such assays; conditions: source organism: Influenza A virus (A/chicken/Hubei/wk/1997(H5N1))
HLA-A*03:01 = test: as above; conditions: source organism: Influenza A virus (A/chicken/Hubei/wk/1997(H5N1))
HLA-B*15:01 [5] = test: as above; conditions: source organism: Influenza A virus (A/chicken/Hubei/wk/1997(H5N1))
HLA-A*31:01 [6] = test: as above; conditions: source organism: Influenza A virus (A/chicken/Hubei/wk/1997(H5N1))
HLA-B*73:01 = test: as above; conditions: source organism: Influenza A virus (A/chicken/Hubei/wk/1997(H5N1))
[7] = source organism: Vaccinia virus Copenhagen
[8] = source organism: Camelpox virus M-96
[9] = source organism: Influenza A virus H3N2
[10] = source organism: Influenza A virus (A/chicken/Hubei/wk/1997(H5N1))

Kd (HLA-B*45:06): ≥ 5 µM
Kd (HLA-A*68:23): 946 nM
Kd (HLA-B*83:01): 5.27 µM
Kd (HLA-B*15:42): ≥ 5 µM
Sequence: KGPPAALTL

Sequence: KMIGNLLSF
Kd (HLA-B*46:01): 1110 nM
Kd (HLA-C*06:02): ≥ 20 µM
Kd (HLA-C*15:02): 2560 nM
Kd (HLA-C*07:02): 666 nM

Sequence: KYFDDVTAF
Kd (HLA-A*02:03): 3.99 µM
Kd (HLA-B*15:17; [7]): 4330 nM
Kd (HLA-B*15:01 [1]): 2070 nM
Kd (HLA-A*31:01 [2]): 2950 nM
Kd (HLA-B*18:01; [7]): 87.4 nM
Kd (HLA-A*26:02): ≥ 20 µM
Kd (HLA-B*08:01; source organism: Variola virus): ≥ 20 µM
Kd (HLA-B*57:01; [8]): ≥ 20 µM
Kd (HLA-A*24:03): 5.5 nM
Kd (HLA-C*14:02): ≤ 1 nM
Kd (HLA-B*15:09): ≥ 20 µM
Kd (HLA-A*11:01 [3]): ≥ 20 µM
Kd (HLA-B*58:01; [8]): ≥ 20 µM
Kd (HLA-A*01:01; [8]): ≥ 20 µM
Kd (HLA-B*08:03): ≥ 20 µM
Kd (HLA-A*69:01; [8]): ≥ 20 µM
Kd (HLA-B*07:02; [8]): ≥ 20 µM
Kd (HLA-B*39:01): ≥ 20 µM
Kd (HLA-A*68:02; [8]): ≥ 20 µM
Kd (HLA-A*02:01; [8]): ≥ 20 µM

Sequence: MKWMMAMKY
Kd (HLA-B*15:17; [9]): 912 nM
Kd (HLA-A*11:01 [4]): ≥ 20 µM
Kd (HLA-A*30:01): 1080 nM
Kd (HLA-B*18:01; [9]): 984 nM
Kd (HLA-B*08:01; source organism: Influenza A virus(A/swine/Shandong/fNY/2003(H9N2))): ≥ 20 µM
Kd (HLA-B*48:01): ≥ 20 µM
Kd (HLA-B*57:01; [10]): ≥ 20 µM
Kd (HLA-A*03:01): ≥ 20 µM
Kd (HLA-B*58:01; [10]): ≥ 20 µM
Kd (HLA-A*01:01; [10]): ≥ 20 µM
Kd (HLA-A*69:01; [10]): ≥ 20 µM
Kd (HLA-B*07:02; [10]): ≥ 20 µM
Kd (HLA-B*15:01 [5]): ≥ 20 µM
Kd (HLA-A*31:01 [6]): ≥ 20 µM
Kd (HLA-B*73:01): ≥ 20 µM
Kd (HLA-A*68:02; [10]): ≥ 20 µM
Kd (HLA-A*02:01; [10]): ≥ 20 µM
